Source: article PMC10648341, “Cloning and Functional Characterization of NADPH-Cytochrome P450 Reductases in Aconitum vilmorinianum” (Molecules, 2023)

What was measured:
CYP76AH1 = target: T1, CYP76AH1 (Salvia miltiorrhiza, UniProt S4UX02); assay: HPLC of yeast extracts, ferruginol formation; type: cell-based; settings: miltiradiene made by host yeast YJ14; co-expressed AvCPR1, AvCPR2 or SmCPR1
T1 construct: ORF in pESC-His, co-expressed with AvCPR1 (also AvCPR2 or SmCPR1) in miltiradiene-producing yeast YJ14; with NADPH--cytochrome P450 reductase 1 (Aconitum vilmorinianum)
T1 sequence (S4UX02 1-495): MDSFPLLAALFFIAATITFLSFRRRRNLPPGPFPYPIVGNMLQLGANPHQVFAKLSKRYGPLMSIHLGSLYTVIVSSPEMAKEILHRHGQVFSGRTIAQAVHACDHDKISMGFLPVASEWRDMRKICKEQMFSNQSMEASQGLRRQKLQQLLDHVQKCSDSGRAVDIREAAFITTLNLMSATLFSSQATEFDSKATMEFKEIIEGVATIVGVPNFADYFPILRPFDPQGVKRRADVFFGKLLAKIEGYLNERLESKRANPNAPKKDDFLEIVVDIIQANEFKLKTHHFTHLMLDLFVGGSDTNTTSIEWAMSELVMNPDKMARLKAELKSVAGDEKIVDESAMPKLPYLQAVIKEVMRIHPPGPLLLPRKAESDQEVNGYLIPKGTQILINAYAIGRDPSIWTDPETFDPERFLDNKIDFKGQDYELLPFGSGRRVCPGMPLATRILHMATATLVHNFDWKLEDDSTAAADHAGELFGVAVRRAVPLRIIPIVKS

cytochrome c = cytochrome c (UniProt P00004)
Sequence of cytochrome c (P00004 whole entry): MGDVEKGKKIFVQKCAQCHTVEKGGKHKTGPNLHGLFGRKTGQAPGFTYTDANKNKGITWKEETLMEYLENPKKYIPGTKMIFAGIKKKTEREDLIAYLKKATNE

| Km for cytochrome c: steady-state reduction of cytochrome c (0-200 μM) by 4 μg recombinant enzyme with 100 μmol/L NADPH, absorbance at 550 nm, 100 mM Tris-HCl, 0.1 mM EDTA, pH 7.4, 25 °C (cytochrome c) [μmol·L^−1] | Compound | HPLC of yeast extracts, ferruginol formation (CYP76AH1) |
| --- | --- | --- |
| – | CC(C)c1cc2c(cc1O)[C@@]1(C)CCCC(C)(C)[C@@H]1CC2 [ferruginol] | transgenic strains co-expressing AvCPRs or SmCPR with CYP76AH1 produced ferruginol |
| 78.1 | truncated AvCPR2 (NADPH-cytochrome P450 reductase 2 of Aconitum vilmorinianum, without the N-terminal membrane-anchoring region) (enzyme) | – |
| 344 | truncated AvCPR1 (NADPH-cytochrome P450 reductase 1 of Aconitum vilmorinianum, without the N-terminal membrane-anchoring region) (enzyme) | – |
